Data on seven molecules can be found in patent US6303317A, “Peptide probes and methods for making the same” (The Regents of the University of California, priority 1998, dated 2001).

Series [1] concerns the target T1, N-terminal APC coiled coil (APC-55) (Homo sapiens, UniProt P25054).
T1 construct: APC-55, a peptide corresponding to amino acids 2-55 of human APC; made in house; host or cells: E. coli BL21 (DE3), pAED4 plasmid
T1 sequence (P25054 2-55): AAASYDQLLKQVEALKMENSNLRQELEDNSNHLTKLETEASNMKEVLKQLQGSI
Kind of series: Thermal denaturation followed by circular dichroism at 222 nm (apparent Tm). In kind it is physicochemical. Conditions: for Apparent Tm: 10 mM phosphate pH 7.0 and 100 mM potassium flouride, midpoint of CD thermal denaturation at 222 nm. How it is done:
Circular dischroism investigations are well known in the art. For example, such an investigation may be performed using a 1 cm or 1 mm cuvette (Helma or Uvonic) on an Aviv CD spectrophotometer (model 60DS or model 62DS) equipped with a thermoelectric controller. The buffer used for all CD experiments except pH titrations is 100 mM KF, 10 mM potassium phosphate (pH 7.0). All peptide concentrations may be determined by tyrosine absorbance at 275.5 nm in 6.0 M GuHCl PH 6.5 (Schwarz/Mann Biotech Ultra-Pure grade) using an Aviv UV/VIS spectrophotometer (model 1 BDS or 14 DS). The molar ellipticity at 222 nm, 5° C., is measured for the homo- and heterodimers. The CD values (i.e., deg cm^2 and dmol^-1) indicate % helicity of the peptides. Thermal melting curves are determined by monitoring the CD signal at 222 nm as a function of temperature. The pH dependence of stability may be measured in 100 mM KF, 10 mM potassium phosphate at various pH values. GuHCl (Schwarz/Mann Biotech Ultra-Pure grade) (e.g., 2M) may be included in the buffer used for monitoring the pH dependence of stability. pH stability is indicated if the same overall shape of the pH dependence curve is obtained in the absence as well as the presence of GuHCl. It is also desirable to determine the reversibility for all thermal melts. The absence of reversibility of a melting curve above a certain pH value indicates chemical modification and/or degradation of the polypeptide. Such modification and/or degradation may be confirmed using HPLC.
Thermal denaturation is used to determine Tm. The term "Tm " refers to the temperature at which the fraction of a polypeptide which is unfolded is equal to the fraction folded (ΔG=0). The Tm is determined by curve fitting a thermal denaturation curve (described supra) to an equation known in the art (see, O'Shea et al (1992) Cell 68:699-708) using a nonlinear least squares-fitting program (e.g., Kaledagraph, Synergy Software). Alternatively, the Tm for each polypeptide may also be determined by taking the first derivative of the CD signal (β) with respect to temperature^-1 (temperature in K) and finding the minimum of this function (Cantor and Schimmel, 1980). Similarly, denaturation induced by additives such as urea or GuHCl can be followed by circular dichroism. These measurements can yield the Cm, i.e., the denaturant concentration where ΔG=0. Linear extrapolation of the transition to zero denaturant can yield the equilibrium constant in aqueous buffer. This can be converted to a free energy of association using the formula ΔG=--RTlnK [Cantor and Schimmel (1980) supra).
CD spectra (180-300 nm) for the APC-55 and anti-APCp1 peptides alone and in combination were recorded in a 1 mm quartz cuvette at 5° C. using an Aviv 62DS circular dichroism spectrophotometer. The concentrations of peptide stocks were determined optically by the method of Gill and vonHippel, Anal. Biochem 182:319-326 (1989). Peptide stocks were diluted in 10 mM KPO4, 100 mM KF, pH 7.0. Thermal denaturations were carried out in steps of 1-3° C. with 2 minutes for equilibration and one minute for data averaging. Thermal transitions were >95% reversible. The results in FIGS. 3 and 4 obtained with the APC-55 alone are shown by open circles (.largecircle.), with the anti-APCp1 alone by squares (.quadrature.), and with an equimolar mixture of APC-55 and anti-APCp1 with closed circles (.circle-solid.).

Series [2] has as its target T2, APC-55 (Homo sapiens, UniProt P25054).
T2 construct: APC-55, a peptide corresponding to amino acids 2-55 of human APC; made in house; host or cells: E. coli BL21 (DE3), pAED4 plasmid
T2 sequence (P25054 2-55): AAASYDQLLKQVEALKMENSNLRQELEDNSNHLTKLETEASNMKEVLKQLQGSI
Kind of series: Fluorescence energy transfer titration (dissociation constant of heterodimer). The class given is binding. How it is done: Based on the sensitivity of the fluorescence method used, the dissociation constant of the APC-55/Anti-APCp2 heterodimer was estimated to be less than 10 nM. […] Because the amino-terminal, coiled coil sequence targeted by anti-APCp1 occurs in tumor-associated truncation mutants, the distinct electrophoretic mobilities of the species detected by the antisense peptide distinguish wild-type from tumorigenic APC variants (FIG. 9).

The target of series [3] is GST-APC-H1-4 (GST fused to the N-terminal 373 amino acids of the APC protein, heptad repeats 1-4) (human, UniProt P08515 = GST). Kind of series: Western blot of bacterial lysates, 5 nM biotinylated peptide, streptavidin-HRP. How it is done:
(§1) Bacterial lysates containing GST, GST-APC-H1, GST-APC-H1-4 and GST-APC-probe were diluted 1:10 in cell lysates from induced BL21 cells containing no APC sequences and adjusted to a final protein concentration of 0.5 mg/ml in sample buffer. Five micrograms of each sample was electrophoresed on a precast 10% Tricine-SDS polyacrylamide gel (Novex) as described by Schager and von-Jagow (1987). Proteins were transferred to 0.45 micron nitrocellulose for 2 hours at 100 V, 4° C., in transfer buffer (25 mM Tris, 192 mM glycine, 20% methanol, 0.1% SDS).
(§2) The anti-APCp1 peptide was biotinylated by removing the F-moc protecting group from the N-terminus of the peptide on the synthesis resin and incubating the resin with the N-hydroxy-succinimidyl ester of biotin containing a long spacer arm (Pierce, Catalog #21336) in dimethylformamide. The biotinylated anti-APCp1 contains Met (instead of Nrl) as well as an additional Leu8Val mutation and Glu-Asp-Glu (wild-type APC sequence) at the peptide C-terminus. This probe was indistinguishable from anti-APCp1 in native gel experiments and CD experiments (data not shown). Blots were blocked for 1 hour in PNT buffer (10 mM phosphate, pH 8.0, 175 mM NaCl, 0.1% Tween-20) containing 0.5% bovine serum albumin. After blocking, blots were probed for I hour at 42° C. with 5 nM biotinylated antiAPC peptide in PNT buffer containing 1% BSA. […]
For orientation: A western blot detects proteins with antibodies after separation by electrophoresis.

Series [4] concerns the target GST-APC-H1 (GST fused to the first 55 amino acids of the human APC protein, heptad repeat 1) (human, UniProt P08515 = GST). Described as above. How it is done: as §1, §2
In series [5] the target is T3, APC-55, a peptide corresponding to amino acids 2-55 of human APC (human).
T3 peptide: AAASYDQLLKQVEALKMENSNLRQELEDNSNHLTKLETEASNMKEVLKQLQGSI
Kind of series: thermal denaturation by CD, equimolar mixture, 20.0 µM.

In series [6] the target is T3, APC-55, a peptide corresponding to …. Kind of series: thermal denaturation by CD, equimolar mixture, 8.0 µM.
For series [7] the target is unchanged. Kind of series: thermal stability at 20 µM peptide in PBS (pH 7.0), mixture.
For series [8] the target is unchanged. Kind of series: fluorescence energy transfer titration.
Series [9] has the same target. Kind of series: thermal denaturation by CD, equimolar mixture, 75.0 µM.
Series [10] has as its target T4, coumarin-labeled APC-55 (human, coumarin label (site not stated)).
T4 peptide: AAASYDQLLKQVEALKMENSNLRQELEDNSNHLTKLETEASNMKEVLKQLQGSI
Kind of series: fluorescence energy transfer measurements.

The nature of series [11]: thermal denaturation by CD, peptide alone, 20.0 µM.
Series [12] is described as follows: thermal denaturation by CD at 222 nm, peptide alone (homo-oligomer), 20.0 µM.
Series [13] in a line: thermal denaturation by CD, peptide alone, 75.0 µM.
Series [14] is described as follows: thermal denaturation by CD at 222 nm, peptide alone (homo-oligomer), 75.0 µM.
Series [15] can be described thus: thermal denaturation by CD, peptide alone, 8.0 µM.
Series [16] in a line: thermal stability at 20 µM peptide in PBS (pH 7.0), peptide alone.
The nature of series [17]: thermal denaturation by CD at 222 nm, peptide alone (homo-oligomer), 8.0 µM.

Where two headings read alike, the source gives them in different places. Where no end group is shown, it is not given here. [ ]: non-standard residue; d: D form. biotin (long spacer arm) = biotin with long spacer arm, attached via N-hydroxysuccinimidyl ester of biotin; Nle = CCCC[C@H](N)C(=O)O Some results are limits rather than exact numbers.

As for “APC-55: peptide corresponding to amino acids 2-55 of human APC; target coiled coil; MAAASYDQLLKQVEALKMENSNLRQELEDNSNHLTKLETEASNMKEVLKQLQGSI”, the “Apparent Tm (+/- 1.25° C.)” value in series [1] (8.0 μM peptide (Table 9)) came to 36.3 °C; in [1] (20.0 μM peptide (Table 9)), 40.0 °C; in series [1] (75.0 μM peptide (Table 9)), 46.5 °C. For the same molecule, the “Apparent Tm” value in [1] (8.0 μM peptide) came to 36.3 °C; in [1] (20.0 μM peptide), 40.0 °C; in series [1] (75.0 μM peptide), 46.5 °C. Further, in series [1] (20 μM peptide concentration in PBS (pH 7.0)), the “Tm (thermal stability)” value is 40.0 °C.

For “MAAKGDQLKKEVEALEYENSNLRKKLEDHKKKLTKLKTEISNAKKMLKQLYASI [anti-APCp1]”, in series [2] (fluorescein- and coumarin-labeled anti-APCp1 and APC-55, data not shown, read-out: Kd of the heterodimer (upper limit)), the Kd was not above 10 nM.

“[Nle]AAKGDQLKKEVEALEYENSNLRKKLEDHKKKLTKLKTEISNAKK[Nle]LKQLYASI [anti-APCp2]”: the Kd in [2] (estimated from the sensitivity of the fluorescence method, read-out: dissociation constant of the APC-55/Anti-APCp2 heterodimer) was less than 10 nM.

B1: biotinylated anti-APCp1 (contains Met instead of Nrl, an additional Leu8Val mutation and Glu-Asp-Glu at the peptide C-terminus) (designed binder)
peptide: {biotin (long spacer arm)}-MAAKGDQVKKEVEALEYENSNLRKKLEDHKKKLTKLKTEISNAKKMLKQLYASIEDE
Regarding B1, the binding result in [3] and in [4] was “binds” throughout.

B2: anti-APCp2 polypeptide probe (designed binder)
peptide: [Nle]AAKGDQLKKEVEALEYENSNLRKKLEDHKKKLTKLKTEISNAKK[Nle]LKQLYASI
With B2, the “Apparent Tm” value in series [5] worked out at 57.5 ° C; in series [6], 52.9 ° C; in [9], 63.6 ° C. Further, in [7], the Tm turned out to be 57.5 ° C. In addition, in series [8], the Kd was less than 10 nM.

B3: fluorescein-labeled anti-APCp1 (designed binder)
peptide: MAAKGDQLKKEVEALEYENSNLRKKLEDHKKKLTKLKTEISNAKKMLKQLYASI
modifications: also: fluorescein label (site not given here)
Take B3: the Kd in [10] was not above 10 nM.

B4: APC-55, a peptide corresponding to amino acids 2-55 of human APC (protein)
chain: AAASYDQLLKQVEALKMENSNLRQELEDNSNHLTKLETEASNMKEVLKQLQGSI
As to B4, the Apparent Tm in series [11] was determined as 40 ° C; in series [12], 40 ° C; in [13] it was 46.5 ° C; in [14], 46.5 ° C; in series [15] it was 36.3 ° C; in series [17], 36.3 ° C. In addition, the Tm in series [16] is 40 ° C.
